This note sets out measurements from article PMC10754010, “CRISPR/Cas9‐based genome editing of 14 lipid metabolic genes reveals a sporopollenin metabolon ZmPKSB‐ZmTKPR1‐1/‐2 required for pollen exine formation in maize”.

For the data set, the target named is T1, ZmMYB84 (MBP fusion) (Zea mays, UniProt B4FQD3 1-356).
T1 sequence: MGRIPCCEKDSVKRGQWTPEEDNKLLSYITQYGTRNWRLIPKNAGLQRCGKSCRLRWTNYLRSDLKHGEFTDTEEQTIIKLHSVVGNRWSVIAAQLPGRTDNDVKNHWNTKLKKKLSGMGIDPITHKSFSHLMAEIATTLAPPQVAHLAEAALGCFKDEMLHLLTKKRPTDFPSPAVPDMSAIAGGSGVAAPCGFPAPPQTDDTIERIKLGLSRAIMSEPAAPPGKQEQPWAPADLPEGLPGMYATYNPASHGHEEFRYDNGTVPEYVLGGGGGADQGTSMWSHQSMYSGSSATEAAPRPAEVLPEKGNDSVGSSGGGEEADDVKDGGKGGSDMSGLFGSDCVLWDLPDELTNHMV
Description: EMSA; EMSA conditions not stated (as in Hou et al., 2023). The conditions noted are these: protein: recombinant; tags: MBP (ZmMYB84 fused to the C-terminus of MBP; vector pMCSG7); label: biotin; 5' overhang 1 nt on each strand (so in the source).

B1: ZmTKPR1-1bio promoter probe (dsDNA)
DNA 1: TAGGAAGGAAGAAGGTTCCTGCAATGCATGTAAGGTTGGTAATTCATGCCTT
DNA 2: AAAGGCATGAATTACCAACCTTACATGCATTGCAGGAACCTTCTTCCTTCCT
As for B1, the binding result is on record as “binds”.

B2: ZmTKPR1-2bio promoter probe (dsDNA)
DNA 1: ATTGCAAATCTACCCCCAACCAACCCAGCTTTGTATCTG
DNA 2: GCAGATACAAAGCTGGGTTGGTTGGGGGTAGATTTGCAA
In the case of B2, the binding result is “binds”.
